Source: patent US20230212266A1 (FRED HUTCHINSON CANCER CENTER, published 2023)
Read-outs that look alike come from different tables or passages of the source.

What was measured:
Experiment in all cases: BLI, mAb on anti-human Fc probe, antigen in solution
[1] = target: T1, SARS-CoV-2 receptor binding domain (RBD) (SARS-CoV-2, UniProt P0DTC2 319-591)
[2] = target: T1, SARS-CoV-2 receptor binding domain (RBD); remark: listed apart in the source
[3] = target: T1, SARS-CoV-2 receptor binding domain (RBD); remark: listed apart in the source
[4] = target: T1, SARS-CoV-2 receptor binding domain (RBD); remark: listed apart in the source
[5] = target: T1, SARS-CoV-2 receptor binding domain (RBD); remark: listed apart in the source
[6] = target: T1, SARS-CoV-2 receptor binding domain (RBD); remark: listed apart in the source
[7] = target: T1, SARS-CoV-2 receptor binding domain (RBD); remark: listed apart in the source
[8] = target: T1, SARS-CoV-2 receptor binding domain (RBD); remark: listed apart in the source
[9] = target: T1, SARS-CoV-2 receptor binding domain (RBD); remark: listed apart in the source
[10] = target: T1, SARS-CoV-2 receptor binding domain (RBD); remark: listed apart in the source
[11] = target: T1, SARS-CoV-2 receptor binding domain (RBD); remark: listed apart in the source
[12] = target: T1, SARS-CoV-2 receptor binding domain (RBD); remark: listed apart in the source
[13] = target: T1, SARS-CoV-2 receptor binding domain (RBD); remark: listed apart in the source
[14] = target: T1, SARS-CoV-2 receptor binding domain (RBD); remark: listed apart in the source
[15] = target: T1, SARS-CoV-2 receptor binding domain (RBD); remark: listed apart in the source
[16] = target: T1, SARS-CoV-2 receptor binding domain (RBD); remark: listed apart in the source
[17] = target: T1, SARS-CoV-2 receptor binding domain (RBD); remark: listed apart in the source

B1: CV2-17 (antibody, V domains shown)
VH: EVQLVESGGGLVQPGGSLRLSCSASGFTFSSYAMHWVRQAPGKGLEYVSTISTNGGSTYYADSVKGRFTISRDNSKNTLYLQMSSLRAEDTAVYYCVLGYCSSTSCQHFDYWGQGTLVTVSS
VL: QSALTQPASVSGSPGQSITISCTGTSSDVGAYNYVSWYQQHPGKAPKLMIYEVSNRPSGVSNRFSGSKSGNTASLTISGLQAEDEADYYCSSYTSSSTPYVFGTGTKVTVL
notes: expressed as IgG
[1]
  binding result: no binding

B2: CV2-19 (antibody, V domains shown)
VH: QVQLVESGGGVVQPGRSLRLSCAASGFTFSSYAMHWVRQAPGKGLEWVAIISYDGINKYYADSVKGRFTISRDNSKNTLYLQMNSLRVEDTAVYYCARPGGGSYYGPFDYWGQGTLVTVSS
VL: QSALTQPASVSGSPGQSITISCTGTSSDVGSYNYVSWYQQHPGKAPKLMIYEVSNRPSGVSNRFSGSKSGNTASLTLSGLQAEDEADYYCSSYTSSSTLYVFGTGTKVTVL
notes: expressed as IgG
[2]
  binding result: no binding

B3: CV2-18 (antibody, V domains shown)
VH: QVQLVQSGAEVKKPGSSVKVSCKASGGTFSSYAISWVRQAPGQGLEWMGGIIPIFGTANYAQKFQGRVTITADESTSTAYMELSSLRSEDTAVYYCARVGAYDSSGYYQDLWGRGTLVTVSS
VL: EIVLTQSPATLSLSPGERATLSCRASQSVSSYLAWYQQKPGQAPRLLIYDASNRATGIPARFSGSGSGTDFTLTISSLEPEDFAVYYCQQRSNWPPVITFGQGTRLEIK
notes: expressed as IgG
[3]
  binding result: no binding

B4: CV2-16 (antibody, V domains shown)
VH: QVQLVQSGAEVKKPGSSVKVSCKASGGTFSSFAFIWVRQAPGQGLEWMGGIIPIFGTAKYTQKFQGRVTITADESTSTAYMELSSLRSEDTAVYYCARVSYYDSSGFYTDYWGQGTLVTVSS
VL: DIVMTQSPATLSLSPGERATLSCRASQSVSSFLAWYQQKPGQAPRLLIYDASNRATGIPARFSGSGSGTDFTLTISSLEPEDFAVYYCQQRSNWPPEYTFGQGTKLEIK
notes: expressed as IgG
[4]
  binding result: no binding

B5: CV2-15 (antibody, V domains shown)
VH: QVQLVQSGAEVKKPGSSVKVSCKTSGGIFSSYAISWVRQAPGQGLEWMGGIIPIFGTANYAQKFQGRVTITADESTSTAYMELSSLRSEDTAVYYCASYSGFDDYGHYRNYWGQGTLVTVSS
VL: DIVMTQTPATLSLSPGERATLSCRASQSVSRYLAWYQQKPGQAPRLLIYDASNRATGIPARFSGSGSGTDFTLTISSLEPEDFAVYYCQQRYNWPPELTFGGGTKVEIK
notes: expressed as IgG
[5]
  binding result: no binding

B6: CV2-24 (antibody, V domains shown)
VH: EVQLVESGGGLVKPGGSLRLSCAASGFTFSSYSMNWVRQAPGKGLEWVSSISSTSNYIYYADSVKGRFTISRDNAKNSLYLQMNSLRAEDTAVYYCARVSPNYDFWSGYYPDAFDIWGQGTMVTVSS
VL: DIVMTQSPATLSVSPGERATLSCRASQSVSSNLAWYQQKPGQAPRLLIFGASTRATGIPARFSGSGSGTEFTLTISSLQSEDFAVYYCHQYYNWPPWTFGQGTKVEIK
notes: expressed as IgG
[6]
  binding result: no binding

B7: CV2-29 (antibody, V domains shown)
VH: QVQLVESGGGVVQPGRSLRLSCAASGFTFSTYAMHWVRQAPGKGLEWVAVISYDGSNKYYADSVKGRFTISRDNSKNTLYLQMNSLRAEDTAVYYCARAYGGSYFYGMDVWGQGTTVTVSS
VL: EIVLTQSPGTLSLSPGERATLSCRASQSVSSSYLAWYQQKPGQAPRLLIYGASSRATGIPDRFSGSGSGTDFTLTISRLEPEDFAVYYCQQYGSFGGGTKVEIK
notes: expressed as IgG
[7]
  binding result: no binding

B8: CV2-27 (antibody, V domains shown)
VH: QLQLQESGPGLVKPSETLSLTCTVSGGSISSSSYYWGWIRQPPGKGLEFIGSIYYSGSTYYNPSLKSRVTISVDTSKNQFSLKLSSVTAADTAVYYCATQEVVLVRPYNYNGMDVWGQGTTVTVSS
VL: QSALTQPASVSGSPGQSITLSCTGTSSDVGGYNYVSWYQQHPGKAPKLMIYEVSNRPSGVSNRFSGSKSGNTASLTISGLQAEDEADYYCSSYTSISTLVFGTGTKVTVL
notes: expressed as IgG
[8]
  binding result: no binding

B9: CV9 (antibody, V domains shown)
VH: QLQLQESGPGLVKPSETLSLTCTVSGGSISSSSYYWGWIRQPPGKGLEWIGSIYYSGSTYYNPSLKSRVTISVDTSKNQFSLKLSSVTAADTAVYYCATHIVVVTATPNWYFDLWGRGTLVTVSS
VL: QSALTQPASVSGSPGQSITISCTGTSSDVGGYNYVSWYQQHPGKAPKLMIYDVSNRPSGVSNRFSGSKSGNTASLTISGLQAEDEADYYCSSYTSISTWVFGGGTKLTVL
notes: expressed as IgG
[9]
  binding result: no binding

B10: CV8 (antibody, V domains shown)
VH: QVQLVQSGAEVKKPGASVKVSCKASGYTFTSYGISWVRQAPGQGLEWMGWISAYNGNTNYAQKLQGRVTMTTDTSTSTAYMELRSLRSDDTAVYYCARLVPTWASYYDFWSGYPGGYGMDVWGQGTTVTVSS
VL: not shown
notes: expressed as IgG
[10]
  binding result: no binding

B11: CV2-14 (antibody, V domains shown)
VH: QVQLVESGGGVVQPGRSLRLSCAASGFTFSSFALHWVRQAPGKGLEWVAVVSYDGSNKYYADSVKGRFTISRDNSKNTLYLQMNSLRAEDTAAYYCARSMGGNYADYFDYWGQGTLVTVSS
VL: EIVLTQSPATLSLSPGERATLSCRASQSVTNYLAWYQQKPGQAPRLLIYDASNRATGIPARFSGSGSGTDFTLTISSLEPEDFAVYYCQQRSNWPNTFGQGTRLEIK
notes: expressed as IgG
[11]
  binding result: no binding

B12: CV2-21 (antibody, V domains shown)
VH: QVQLVQSGAEVKKPGASVKVSCKAFGYTFTKNGINWVRQAPGQGLEWMGWISPNNGYTNFAQKFQGRATMTSDTSTSTAYMELRSLRSDDTAVYYCARVRVDYDSSGYDAYYYHLDVWGQGTTVTVSS
VL: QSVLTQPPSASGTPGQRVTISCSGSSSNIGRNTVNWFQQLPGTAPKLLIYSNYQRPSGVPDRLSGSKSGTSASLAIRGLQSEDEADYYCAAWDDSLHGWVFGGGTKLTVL
notes: expressed as IgG
[12]
  binding result: no binding

B13: CV2-25 (antibody, V domains shown)
VH: EVQLVQSGAEVKKPGESLRISCKGSGYSFTSYWISWVRQMPGKGLEWMGKIDPSDSYTNYSPSFQGHVTISADKSISTAYLQWSSLKASDTAMYYCARQFGGELLGWFDPWGQGTLVTVSS
VL: DIQMTQSPSSLSASVGDRVTITCRASQGISNYLAWYQQKPGKVPKLLIYAASTLQSGVPSRFSGSGSGTDFTLTISSLQPEDVATYYCQKYNSAPFTFGPGTKVDIK
notes: expressed as IgG
[13]
  binding result: no binding

B14: CV2-28 (antibody, V domains shown)
VH: QLQLQESGPGLVKPSETLSLTCTVSGGSVSSNAYYWGWIRQPPGKGLEWIGSVNYRGSTYYIPTLKSRITISVNTSKNQFSLKLTSVTAADTAVYYCARRGVALVTITYFDFWGQGALVTVSS
VL: QSVLTQPPSVSGAPGQRVTITCTGSSSNIGSGYDVHWYQQLPGTAPKLLIYGNTNRPSGVPDRFSGSKSGTSASLAITGLQAEDEAHYYCQSYDSSVVFGGGTKLTVL
notes: expressed as IgG
[14]
  binding result: no binding

B15: CV2-23 (antibody, V domains shown)
VH: QVQLVESGGGVVQPGRSLRLSCAASGFTFNSFAMHWVRQAPGKGLEWVAVISYDGNNKYYADSVKGRFTISRDNSKNTLYLQMNSLRAEDTAVYYCARDRSGGYSCFDYWGQGTLVTVSS
VL: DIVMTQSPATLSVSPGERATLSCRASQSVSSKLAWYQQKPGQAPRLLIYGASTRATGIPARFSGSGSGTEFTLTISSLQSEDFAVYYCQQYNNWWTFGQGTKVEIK
notes: expressed as IgG
[15]
  binding result: no binding

B16: CV2-22 (antibody, V domains shown)
VH: QVQLVESGGGVVQPGRSLRLSCAASGFTFSSYGMHWVRQAPGKGLEWVAVISYDGSNKYYADSVKGRFTISRDNSKNTLYLQMNSLRAEDTALYYCASEIVSFIGSSEDYWGQGTLVTVSS
VL: SYELTQPPSVSVSPGQTARITCSGDALPKKYAYWYQQKSGQAPVLVIYEDSKRPSGIPERFSGSSSGTMATLTISGAQVEDEADYCCYSTDSSDNHRRVFGTGTKVTVL
notes: expressed as IgG
[16]
  binding result: no binding

B17: CV2-26 (antibody, V domains shown)
VH: QVQLVESGGGVVQPGRSLRLSCAAAGFIFSSYAMNWVRQAPGKGLEWVAVISYDGSNKYYADSVKGRFTISRDNSKNTLNLQMNSLRAEDTAVYYCARGNGYIIIDYWGQGTLVTVSS
VL: QLVLTQSPSASASLGASVKLTCTLSSGHSSYAIAWHQQQPEKGPRYLMKFNSDGTHSKGDGIPDRFSGSSSGAERSLTISSLQSEDEADYYCQTWGTGGVFGGGTKLTVL
notes: expressed as IgG
[17]
  binding result: no binding
